Laboratory results taken from article PMC2360559, “Repeated cycles of Clostridium-directed enzyme prodrug therapy result in sustained antitumour effects in vivo” (British Journal of Cancer, 2006).

Tested on: NC(=O)c1cc(N2CC2)c([N+](=O)[O-])cc1[N+](=O)[O-]
Test: purified protein
Assay type: biochemical, Haemophilus influenzae
Conditions: 100–1000 μM CB 1954, 500 μM NADPH, 37°C, 10 min, product 4HX

“NTR-H; Haemophilus influenzae NfnB; YC78_HAEIN; HinNTR (Haemophilus influenzae Rd KW20)” was tested, and the Km was 690 µM and the kcat was 56.2 s⁻¹.
